Results: patent publication US20130005646A1 (Novo Nordisk, published 2013)
Starred links: 1 amine or outer side, 2 acyl side, 3 side chain; linkers in the order of their positions; H or OH if unused. Positions of bridges follow the written chain, without caps; N, C: chain ends. *: point of attachment. C20 diacid = O=C(O)CCCCCCCCCCCCCCCCCCC(=O)*; γGlu = O=C(O)[C@H](CCC(=O)[*:2])N[*:1]

T1: human calcitonin (a) receptor (human, UniProt P30988 25-474)
T1 sequence (looked up): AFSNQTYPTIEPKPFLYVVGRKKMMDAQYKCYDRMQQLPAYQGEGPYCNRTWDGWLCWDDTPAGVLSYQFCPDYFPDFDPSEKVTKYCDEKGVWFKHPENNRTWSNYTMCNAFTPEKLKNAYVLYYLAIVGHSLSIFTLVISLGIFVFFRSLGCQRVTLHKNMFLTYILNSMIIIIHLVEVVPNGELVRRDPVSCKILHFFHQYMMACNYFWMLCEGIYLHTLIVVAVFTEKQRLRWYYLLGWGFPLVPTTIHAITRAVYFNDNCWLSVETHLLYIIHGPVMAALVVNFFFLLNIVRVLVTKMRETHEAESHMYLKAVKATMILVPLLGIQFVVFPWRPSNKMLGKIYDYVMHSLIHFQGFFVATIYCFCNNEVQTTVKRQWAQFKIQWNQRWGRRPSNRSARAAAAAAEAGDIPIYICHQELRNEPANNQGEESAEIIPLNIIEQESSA

T2: human amylin 3(a) receptor (human calcitonin receptor + RAMP-3) (human, UniProt P30988 25-474; O60896 24-148)
T2 sequence (looked up) 1: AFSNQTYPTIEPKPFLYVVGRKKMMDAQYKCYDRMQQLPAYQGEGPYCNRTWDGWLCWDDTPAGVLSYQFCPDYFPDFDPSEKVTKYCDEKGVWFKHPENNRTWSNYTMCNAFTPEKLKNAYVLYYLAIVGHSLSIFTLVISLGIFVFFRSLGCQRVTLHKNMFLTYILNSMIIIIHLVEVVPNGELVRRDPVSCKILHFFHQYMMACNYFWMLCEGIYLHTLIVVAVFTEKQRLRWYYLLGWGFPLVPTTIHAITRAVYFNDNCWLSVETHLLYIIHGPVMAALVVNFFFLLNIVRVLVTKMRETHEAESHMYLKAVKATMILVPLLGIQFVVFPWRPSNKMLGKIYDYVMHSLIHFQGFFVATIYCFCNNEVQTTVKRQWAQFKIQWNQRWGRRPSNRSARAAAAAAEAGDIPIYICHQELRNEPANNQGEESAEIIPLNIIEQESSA
T2 sequence (looked up) 2: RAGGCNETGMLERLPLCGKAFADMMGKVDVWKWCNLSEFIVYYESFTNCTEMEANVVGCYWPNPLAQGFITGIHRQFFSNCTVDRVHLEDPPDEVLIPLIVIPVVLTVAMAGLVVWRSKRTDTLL


Assays:
[1] = target: T1, human calcitonin (a) receptor; test: cell-based or functional assay
[2] = target: T2, human amylin 3(a) receptor (human …); test: cell-based or functional assay

CTa receptor human EC50 [1] [pM] | Amylin receptor human EC50 [2] [pM] | Binder
171 | 225 | {C20 diacid-γGlu}-SCNTATCATQRLAEFLHHSSNNFGPILPPTNVGSHTY-NH2 (disulfide 2-7; SMILES CC[C@H](C)[C@H](NC(=O)[C@@H]1CCCN1C(=O)CNC(=O)[C@H](Cc1ccccc1)NC(=O)[C@H](CC(N)=O)NC(=O)[C@H](CC(N)=O)NC(=O)[C@H](CO)NC(=O)[C@H](CO)NC(=O)[C@H](Cc1c[nH]cn1)NC(=O)[C@H](Cc1c[nH]cn1)NC(=O)[C@H](CC(C)C)NC(=O)[C@H](Cc1ccccc1)NC(=O)[C@H](CCC(=O)O)NC(=O)[C@H](C)NC(=O)[C@H](CC(C)C)NC(=O)[C@H](CCCNC(=N)N)NC(=O)[C@H](CCC(N)=O)NC(=O)[C@@H](NC(=O)[C@H](C)NC(=O)[C@@H]1CSSC[C@H](NC(=O)[C@H](CO)NC(=O)CC[C@H](NC(=O)CCCCCCCCCCCCCCCCCCC(=O)O)C(=O)O)C(=O)N[C@@H](CC(N)=O)C(=O)N[C@@H]([C@@H](C)O)C(=O)N[C@@H](C)C(=O)N[C@@H]([C@@H](C)O)C(=O)N1)[C@@H](C)O)C(=O)N[C@@H](CC(C)C)C(=O)N1CCC[C@H]1C(=O)N1CCC[C@H]1C(=O)N[C@H](C(=O)N[C@@H](CC(N)=O)C(=O)N[C@H](C(=O)NCC(=O)N[C@@H](CO)C(=O)N[C@@H](Cc1c[nH]cn1)C(=O)N[C@H](C(=O)N[C@@H](Cc1ccc(O)cc1)C(N)=O)[C@@H](C)O)C(C)C)[C@@H](C)O) [N-alpha-[(S)-4-Carboxy-4-(19-carboxynonadecanoylamino)butyryl]-[Ser1,Glu14,His17,His35]-pramlintide]
160 | 208 | {C20 diacid-γGlu}-GCNTATCATQRLAEFLHHSSNNFGPILPPTNVGSHTY-NH2 (disulfide 2-7; SMILES CC[C@H](C)[C@H](NC(=O)[C@@H]1CCCN1C(=O)CNC(=O)[C@H](Cc1ccccc1)NC(=O)[C@H](CC(N)=O)NC(=O)[C@H](CC(N)=O)NC(=O)[C@H](CO)NC(=O)[C@H](CO)NC(=O)[C@H](Cc1c[nH]cn1)NC(=O)[C@H](Cc1c[nH]cn1)NC(=O)[C@H](CC(C)C)NC(=O)[C@H](Cc1ccccc1)NC(=O)[C@H](CCC(=O)O)NC(=O)[C@H](C)NC(=O)[C@H](CC(C)C)NC(=O)[C@H](CCCNC(=N)N)NC(=O)[C@H](CCC(N)=O)NC(=O)[C@@H](NC(=O)[C@H](C)NC(=O)[C@@H]1CSSC[C@H](NC(=O)CNC(=O)CC[C@H](NC(=O)CCCCCCCCCCCCCCCCCCC(=O)O)C(=O)O)C(=O)N[C@@H](CC(N)=O)C(=O)N[C@@H]([C@@H](C)O)C(=O)N[C@@H](C)C(=O)N[C@@H]([C@@H](C)O)C(=O)N1)[C@@H](C)O)C(=O)N[C@@H](CC(C)C)C(=O)N1CCC[C@H]1C(=O)N1CCC[C@H]1C(=O)N[C@H](C(=O)N[C@@H](CC(N)=O)C(=O)N[C@H](C(=O)NCC(=O)N[C@@H](CO)C(=O)N[C@@H](Cc1c[nH]cn1)C(=O)N[C@H](C(=O)N[C@@H](Cc1ccc(O)cc1)C(N)=O)[C@@H](C)O)C(C)C)[C@@H](C)O) [N-alpha-[(S)-4-Carboxy-4-(19-carboxynonadecanoylamino)butyryl]-[Gly1,Glu14,His17,His35]-pramlintide]
70.5 | 62.5 | {C20 diacid-γGlu}-SCNTATCATQRLAEFLHHSSNNFGPILPPTNVGSNTP-NH2 (disulfide 2-7; SMILES CC[C@H](C)[C@H](NC(=O)[C@@H]1CCCN1C(=O)CNC(=O)[C@H](Cc1ccccc1)NC(=O)[C@H](CC(N)=O)NC(=O)[C@H](CC(N)=O)NC(=O)[C@H](CO)NC(=O)[C@H](CO)NC(=O)[C@H](Cc1c[nH]cn1)NC(=O)[C@H](Cc1c[nH]cn1)NC(=O)[C@H](CC(C)C)NC(=O)[C@H](Cc1ccccc1)NC(=O)[C@H](CCC(=O)O)NC(=O)[C@H](C)NC(=O)[C@H](CC(C)C)NC(=O)[C@H](CCCNC(=N)N)NC(=O)[C@H](CCC(N)=O)NC(=O)[C@@H](NC(=O)[C@H](C)NC(=O)[C@@H]1CSSC[C@H](NC(=O)[C@H](CO)NC(=O)CC[C@H](NC(=O)CCCCCCCCCCCCCCCCCCC(=O)O)C(=O)O)C(=O)N[C@@H](CC(N)=O)C(=O)N[C@@H]([C@@H](C)O)C(=O)N[C@@H](C)C(=O)N[C@@H]([C@@H](C)O)C(=O)N1)[C@@H](C)O)C(=O)N[C@@H](CC(C)C)C(=O)N1CCC[C@H]1C(=O)N1CCC[C@H]1C(=O)N[C@H](C(=O)N[C@@H](CC(N)=O)C(=O)N[C@H](C(=O)NCC(=O)N[C@@H](CO)C(=O)N[C@@H](CC(N)=O)C(=O)N[C@H](C(=O)N1CCC[C@H]1C(N)=O)[C@@H](C)O)C(C)C)[C@@H](C)O) [N-alpha-[(S)-4-Carboxy-4-(19-carboxynonadecanoylamino)butyryl]-[Ser1,Glu14,His17,Pro37]-pramlintide]

More lines, now with the values behind:

Binder | CTa receptor human EC50 [1] [pM] | Amylin receptor human EC50 [2] [pM]
{C20 diacid-γGlu}-CNTATCATQRLAEFLHHSSNNFGPILPPTNVGSNTP-NH2 (disulfide 1-6; SMILES CC[C@H](C)[C@H](NC(=O)[C@@H]1CCCN1C(=O)CNC(=O)[C@H](Cc1ccccc1)NC(=O)[C@H](CC(N)=O)NC(=O)[C@H](CC(N)=O)NC(=O)[C@H](CO)NC(=O)[C@H](CO)NC(=O)[C@H](Cc1c[nH]cn1)NC(=O)[C@H](Cc1c[nH]cn1)NC(=O)[C@H](CC(C)C)NC(=O)[C@H](Cc1ccccc1)NC(=O)[C@H](CCC(=O)O)NC(=O)[C@H](C)NC(=O)[C@H](CC(C)C)NC(=O)[C@H](CCCNC(=N)N)NC(=O)[C@H](CCC(N)=O)NC(=O)[C@@H](NC(=O)[C@H](C)NC(=O)[C@@H]1CSSC[C@H](NC(=O)CC[C@H](NC(=O)CCCCCCCCCCCCCCCCCCC(=O)O)C(=O)O)C(=O)N[C@@H](CC(N)=O)C(=O)N[C@@H]([C@@H](C)O)C(=O)N[C@@H](C)C(=O)N[C@@H]([C@@H](C)O)C(=O)N1)[C@@H](C)O)C(=O)N[C@@H](CC(C)C)C(=O)N1CCC[C@H]1C(=O)N1CCC[C@H]1C(=O)N[C@H](C(=O)N[C@@H](CC(N)=O)C(=O)N[C@H](C(=O)NCC(=O)N[C@@H](CO)C(=O)N[C@@H](CC(N)=O)C(=O)N[C@H](C(=O)N1CCC[C@H]1C(N)=O)[C@@H](C)O)C(C)C)[C@@H](C)O) [N-alpha-[(S)-4-Carboxy-4-(19-carboxynonadecanoylamino)butyryl]-[des1,Glu14,His17,Pro37]-pramlintide] | 106 | 79.5
{C20 diacid-γGlu}-GRCNTATCATQRLAEFLVHSSNNFGPILPPTNVGSNTP-NH2 (disulfide 3-8; SMILES CC[C@H](C)[C@H](NC(=O)[C@@H]1CCCN1C(=O)CNC(=O)[C@H](Cc1ccccc1)NC(=O)[C@H](CC(N)=O)NC(=O)[C@H](CC(N)=O)NC(=O)[C@H](CO)NC(=O)[C@H](CO)NC(=O)[C@H](Cc1c[nH]cn1)NC(=O)[C@@H](NC(=O)[C@H](CC(C)C)NC(=O)[C@H](Cc1ccccc1)NC(=O)[C@H](CCC(=O)O)NC(=O)[C@H](C)NC(=O)[C@H](CC(C)C)NC(=O)[C@H](CCCNC(=N)N)NC(=O)[C@H](CCC(N)=O)NC(=O)[C@@H](NC(=O)[C@H](C)NC(=O)[C@@H]1CSSC[C@H](NC(=O)[C@H](CCCNC(=N)N)NC(=O)CNC(=O)CC[C@H](NC(=O)CCCCCCCCCCCCCCCCCCC(=O)O)C(=O)O)C(=O)N[C@@H](CC(N)=O)C(=O)N[C@@H]([C@@H](C)O)C(=O)N[C@@H](C)C(=O)N[C@@H]([C@@H](C)O)C(=O)N1)[C@@H](C)O)C(C)C)C(=O)N[C@@H](CC(C)C)C(=O)N1CCC[C@H]1C(=O)N1CCC[C@H]1C(=O)N[C@H](C(=O)N[C@@H](CC(N)=O)C(=O)N[C@H](C(=O)NCC(=O)N[C@@H](CO)C(=O)N[C@@H](CC(N)=O)C(=O)N[C@H](C(=O)N1CCC[C@H]1C(N)=O)[C@@H](C)O)C(C)C)[C@@H](C)O) [N-alpha-[(S)-4-Carboxy-4-(19-carboxynonadecanoylamino)butyryl]-Gly-[Arg1,Glu14,Pro37]-pramlintide] | 50.5 | 49.5
{C20 diacid-γGlu}-GRCNTATCATQRLANFLVHSSNNFGPILPPTNVGSNTP-NH2 (disulfide 3-8; SMILES CC[C@H](C)[C@H](NC(=O)[C@@H]1CCCN1C(=O)CNC(=O)[C@H](Cc1ccccc1)NC(=O)[C@H](CC(N)=O)NC(=O)[C@H](CC(N)=O)NC(=O)[C@H](CO)NC(=O)[C@H](CO)NC(=O)[C@H](Cc1c[nH]cn1)NC(=O)[C@@H](NC(=O)[C@H](CC(C)C)NC(=O)[C@H](Cc1ccccc1)NC(=O)[C@H](CC(N)=O)NC(=O)[C@H](C)NC(=O)[C@H](CC(C)C)NC(=O)[C@H](CCCNC(=N)N)NC(=O)[C@H](CCC(N)=O)NC(=O)[C@@H](NC(=O)[C@H](C)NC(=O)[C@@H]1CSSC[C@H](NC(=O)[C@H](CCCNC(=N)N)NC(=O)CNC(=O)CC[C@H](NC(=O)CCCCCCCCCCCCCCCCCCC(=O)O)C(=O)O)C(=O)N[C@@H](CC(N)=O)C(=O)N[C@@H]([C@@H](C)O)C(=O)N[C@@H](C)C(=O)N[C@@H]([C@@H](C)O)C(=O)N1)[C@@H](C)O)C(C)C)C(=O)N[C@@H](CC(C)C)C(=O)N1CCC[C@H]1C(=O)N1CCC[C@H]1C(=O)N[C@H](C(=O)N[C@@H](CC(N)=O)C(=O)N[C@H](C(=O)NCC(=O)N[C@@H](CO)C(=O)N[C@@H](CC(N)=O)C(=O)N[C@H](C(=O)N1CCC[C@H]1C(N)=O)[C@@H](C)O)C(C)C)[C@@H](C)O) [N-alpha-[(S)-4-Carboxy-4-(19-carboxynonadecanoylamino)butyryl]-Gly-[Arg1,Pro37]-pramlintide] | 75 | 52.5
